# Measurements taken from US20170226155A1.
# Where no end group is shown, it is not given here. [ ]: non-standard residue; d: D form. The star is where a group is joined. NMeF = CN[C@@H](Cc1ccccc1)C(=O)O; boroPro = OB(O)[C@@H]1CCCN1*
# Biological target: Dipeptidyl amino peptidase type IV (DPP IV)
# Assay: cell-based or functional assay
"IC50 at ten minutes, pH 2","IC50 at ten minutes, pH 8","IC50, pH 2 (Tetrapeptide Prodrugs)","IC50, pH 8 (Tetrapeptide Prodrugs) [nM]",Binder
15 nM,17 nM,–,–,YPA[boroPro] [Tyrosine-proline-alanine-proline boronic acid]
17 nM,46 nM,17 nM,46,GPV[boroPro] [GlyProValboroPro]
2 µM,25 µM,–,–,AAV[boroPro] [AlaAlaValboroPro]
10 µM,–,10 µM,–,PPP[boroPro] [ProProProboroPro]
8.3 µM,–,8 mM,–,APP[boroPro] [AlaProProboroPro]
2 µM,2.7 µM,–,–,[NMeF]PA[boroPro] [N-Me-Phe-PRO-ALA-PRO boronic acid]
20 nM,21 nM,20 nM,21,APV[boroPro] [AlaProValboroPro]
8.6 µM,20 µM,9 µM,–,GPP[boroPro] [GlyProProboroPro]
6 nM,8 nM,–,–,FPA[boroPro] [Phenylalanine-proline-alanine-proline boronic acid]
